# Results: paper PMC12274480 (Communications Chemistry, 2025)
# B1: TPL1158_01_C09 (VHH)
# VHH: QVQLQESGGGLVQPGGSLRLSCAASGDIGGLKQMGWYRQAPGHQRELVAVKRNENEANYTESVKGRFTISRDNARKMVYLQMNSLKPEDTAVYYCNAVVGNWYTSGYYEDTYWGQGTQVTVSS
# Target: Nn8 (fraction 8 from N. nivea venom) (Naja nivea, UniProt P01390, biotin (site not stated))
# Assay: BLI
# Sequence of Nn8 (fraction 8 from N. nivea venom) (P01390 whole entry, looked up): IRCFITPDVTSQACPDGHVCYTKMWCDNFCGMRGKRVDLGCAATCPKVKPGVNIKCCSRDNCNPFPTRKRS
binder,measurement,value
B1,Kd,63 nM
